Results as given in PMC7337043.

Biological target: mature Zika virus (ZIKV) virion, icosahedral shell of 180 copies each of the E protein and M protein (Zika virus)
Assay: cryo-EM structure; purified ZIKV virions (10 mM Tris-HCl pH 8.0, 120 mM NaCl, 1 mM EDTA) mixed with purified Fab (15 mM Tris-HCl pH 8, 150 mM NaCl) at E protein:Fab molar ratio 1:2; single particle analysis with icosahedral symmetry, 4.1 Å

B1: Fab of monoclonal antibody ZAb_FLEP (Fab, V domains shown)
VH: EVQLLESGGGLVQPGGSLRLSCAASGFSFSTYSMHWVRQAPGKGLEWVSAISGEGDSAYYADSVKGRFTISRDNSKNTLYLQMNKVRAEDTAVYYCVGGYSNFYYYYTMDAWGQGTMVTVSS
VL: DIVMTQSPASLSLSPGERATLSCRATQSISTFLAWYQQKPGQAPRLLIYDASTRASGIPARFSGSRSGTDFTLTITRLEPEDFAVYYCQQRYNWPPYSFGQGTKLEIK
B1 was tested, and the stoichiometry N (Fab molecules per virion) was 120.
